The target in experiment [1] is T1, human KDR-Fc fusion (R&D Systems #357-KD-050) (human, UniProt P35968 20-764).
T1 construct: bought
The experiment is described as follows: phage binding screen on KDR-Fc; class legend in paragraph 246.

Experiment [2] has as its target KDR on human umbilical vein endothelial cells (HUVECs) (human, UniProt P35968 20-1356). Briefly: cell-based or functional assay.
For experiment [3], the target named is KDR on transiently KDR-transfected 293H cells (human) (UniProt P35968). The experiment is described as follows: competition with 300 pM 125I-VEGF on KDR-transfected 293H cells, peptide 30 µM.
Chain of KDR on transiently KDR-transfected 293H cells (human) (P35968 20-1356): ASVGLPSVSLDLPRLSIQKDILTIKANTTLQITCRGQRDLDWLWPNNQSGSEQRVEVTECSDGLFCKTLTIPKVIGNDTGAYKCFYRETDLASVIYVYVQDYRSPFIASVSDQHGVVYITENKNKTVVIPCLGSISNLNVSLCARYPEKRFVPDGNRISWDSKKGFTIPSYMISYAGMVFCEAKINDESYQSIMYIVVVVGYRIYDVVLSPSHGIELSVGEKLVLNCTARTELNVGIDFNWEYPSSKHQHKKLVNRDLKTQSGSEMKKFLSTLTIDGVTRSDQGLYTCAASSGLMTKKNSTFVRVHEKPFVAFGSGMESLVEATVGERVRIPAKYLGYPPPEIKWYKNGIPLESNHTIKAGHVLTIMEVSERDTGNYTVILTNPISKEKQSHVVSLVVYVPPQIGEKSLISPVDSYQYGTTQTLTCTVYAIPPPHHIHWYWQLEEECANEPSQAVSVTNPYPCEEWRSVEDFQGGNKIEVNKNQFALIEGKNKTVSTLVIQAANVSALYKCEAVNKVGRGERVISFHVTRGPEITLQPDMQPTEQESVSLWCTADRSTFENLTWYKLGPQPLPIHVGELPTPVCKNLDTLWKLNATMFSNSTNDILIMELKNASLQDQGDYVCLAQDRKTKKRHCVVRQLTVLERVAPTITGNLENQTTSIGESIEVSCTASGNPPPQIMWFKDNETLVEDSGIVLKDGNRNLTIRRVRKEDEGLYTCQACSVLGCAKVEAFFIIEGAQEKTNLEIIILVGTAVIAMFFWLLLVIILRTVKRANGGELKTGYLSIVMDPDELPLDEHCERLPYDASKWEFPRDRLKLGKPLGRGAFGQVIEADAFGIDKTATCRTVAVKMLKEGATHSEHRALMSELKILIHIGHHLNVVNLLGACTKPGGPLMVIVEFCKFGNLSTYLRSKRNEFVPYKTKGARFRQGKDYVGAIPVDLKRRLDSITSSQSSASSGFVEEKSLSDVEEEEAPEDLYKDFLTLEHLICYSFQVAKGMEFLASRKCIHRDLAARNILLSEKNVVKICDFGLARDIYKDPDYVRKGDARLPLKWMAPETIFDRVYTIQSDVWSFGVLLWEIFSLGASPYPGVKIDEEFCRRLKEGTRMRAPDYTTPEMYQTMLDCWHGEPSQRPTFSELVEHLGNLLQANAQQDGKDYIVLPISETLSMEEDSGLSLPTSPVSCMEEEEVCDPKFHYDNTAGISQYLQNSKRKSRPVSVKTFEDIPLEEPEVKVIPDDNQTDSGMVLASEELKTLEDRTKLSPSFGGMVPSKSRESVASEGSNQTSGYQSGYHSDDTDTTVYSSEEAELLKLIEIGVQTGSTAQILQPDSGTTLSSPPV
Experiment [4] has as its target T1, human KDR-Fc fusion (R&D Systems …). Briefly: Biacore, KDR-Fc on CM5 chip, unlabeled peptide. On the technique in general: In SPR one partner is held on a chip, and binding of the other changes the refractive index at the surface.
The target in experiment [5] is KDR on transiently KDR-transfected 293H cells (human) (UniProt P35968). Briefly: competition with 300 pM 125I-VEGF on KDR-transfected 293H cells, peptide 0.3 µM.
For experiment [6], the target named is T1, human KDR-Fc fusion (R&D Systems …). The experiment is described as follows: SPR.
For experiment [7] the target is unchanged. The experiment is described as follows: fluorescence anisotropy, fluorescein-labeled peptide, KDR-Fc alone. On the technique in general: In fluorescence polarisation assays a small probe gives low polarisation when free and higher when bound to something large.
Experiment [8] addresses T2, KDR/VEGF complex (KDR-Fc mixed or saturated with VEGF) (human, UniProt P35968 20-764; P15692 27-191).
T2 construct: anisotropy: two fold molar excess of VEGF mixed with KDR-Fc; Biacore: KDR-Fc chip saturated with VEGF; also called KDR:VEGF165 complex
Briefly: fluorescence anisotropy, fluorescein-labeled peptide, KDR-Fc with two fold excess VEGF.

The target of experiment [9] is VEGF165 (Peprotech #100-20) (UniProt P15692-4 27-191). Briefly: fluorescence anisotropy, fluorescein-labeled peptide.
Chain of VEGF165 (Peprotech #100-20) (P15692 other isoform, or with tags, fused parts or gaps limits assumed): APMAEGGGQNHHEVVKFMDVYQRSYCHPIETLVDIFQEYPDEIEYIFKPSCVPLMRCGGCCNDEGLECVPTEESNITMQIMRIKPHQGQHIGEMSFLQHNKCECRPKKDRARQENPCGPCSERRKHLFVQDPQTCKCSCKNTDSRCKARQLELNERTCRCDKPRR
In experiment [10] the target is T2, KDR/VEGF complex (KDR-Fc mixed or …). The experiment is described as follows: Biacore, KDR-Fc chip saturated with VEGF, unlabeled peptide.
Experiment [11] deals with T1, human KDR-Fc fusion (R&D Systems …). Briefly: fluorescence anisotropy, fluorescein-labeled peptide.

Bridge positions count the residues as written; N and C are the ends. Ends that are not written are not given here.

T1 sequence (P35968 20-764): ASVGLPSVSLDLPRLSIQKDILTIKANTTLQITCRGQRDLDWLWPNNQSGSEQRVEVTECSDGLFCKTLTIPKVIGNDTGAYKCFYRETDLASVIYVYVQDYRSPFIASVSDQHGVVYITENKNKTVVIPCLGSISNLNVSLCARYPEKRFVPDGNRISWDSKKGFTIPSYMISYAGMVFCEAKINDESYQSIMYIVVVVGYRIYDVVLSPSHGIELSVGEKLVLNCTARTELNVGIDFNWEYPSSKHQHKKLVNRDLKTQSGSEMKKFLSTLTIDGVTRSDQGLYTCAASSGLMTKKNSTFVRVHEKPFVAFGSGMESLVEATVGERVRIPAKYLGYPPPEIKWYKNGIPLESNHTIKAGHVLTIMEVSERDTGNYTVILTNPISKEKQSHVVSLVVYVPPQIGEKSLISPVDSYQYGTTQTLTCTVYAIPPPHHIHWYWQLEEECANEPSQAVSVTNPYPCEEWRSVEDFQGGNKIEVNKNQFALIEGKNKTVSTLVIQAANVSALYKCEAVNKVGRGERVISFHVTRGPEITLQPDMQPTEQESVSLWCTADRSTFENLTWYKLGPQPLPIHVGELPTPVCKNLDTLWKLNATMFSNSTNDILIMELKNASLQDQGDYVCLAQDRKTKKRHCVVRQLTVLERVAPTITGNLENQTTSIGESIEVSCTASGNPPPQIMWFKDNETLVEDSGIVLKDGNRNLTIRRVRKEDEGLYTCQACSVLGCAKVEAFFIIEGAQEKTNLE
T2 sequence (P35968 20-764, chain 1 of 2): as the sequence (P35968 20-764) above
T2 sequence (P15692 other isoform, or with tags, fused parts or gaps, chain 2 of 2): as the sequence (P15692 other isoform, or with tags, fused parts or gaps limits assumed) above
Chain of KDR on human umbilical vein endothelial cells (HUVECs) (P35968 20-1356): as the sequence (P35968 20-1356) above

As for DHHCYLHNGQWICYPF [phage isolate DHHCYLHNGQWICYPF], the binding result in [1] was “binds”.

As for Ac-GDSRVCWEDSWGGEVCFRYDPGGGK-NH2 (not fully specified; cysteine pairing not given here) [SEQ ID NO:294], in experiment [2], the “VEGF-induced KDR phosphorylation in HUVECs” value is at least 50 % inhibition at 10 µM. Further, the % inhibition of 125I-labeled VEGF binding in [3] amounted to 96.3%; in [5], 52.3%. In addition, the Kd – broadly, the constant that tells how readily two partners part at equilibrium – in experiment [4] was found to be 120 nM.

Take NSHCYIWDGMWLCFPD [phage isolate NSHCYIWDGMWLCFPD]: the binding result in experiment [1] is on record as “binds”.

B1: tail-to-tail heterodimer comprising the polypeptides of SEQ ID NO:305 and SEQ ID NO:306 (peptide)
peptide 1: AQEPEGYAYWEVITLYHEEDGDGGK
peptide 2: AQAFPRFGGDDYWIQQYLRYTDGGK
modifications: not fully specified (bridges); also: tail-to-tail linker not given here
As to B1, in experiment [6], binding was characterised by a dissociation constant (Kd) of 11 nM.

B2: SEQ ID NO:323 (peptide)
peptide: Ac-AGYGPCKNMPPWMCWHEGTGGGK-NH2
modifications: disulfide 6-14 (inferred); not fully specified; also: C-terminal Lys fluorescein-labeled in some assay forms
As to B2, the figures for the equilibrium dissociation constant (Kd) in [7], in experiment [8] and in [10] were 1800 nM, 180 nM and 420 nM, respectively. Also, the binding result in experiment [9] is listed as “no binding”.

B3: SEQ ID NO:321 (peptide)
peptide: Ac-AGPGPCKGYMPHQCWYMGTGGGK-NH2
modifications: disulfide 6-14 (inferred); not fully specified; also: C-terminal Lys fluorescein-labeled in some assay forms
B3: the values for the Kd in experiment [7], in [8] and in experiment [10] were 400 nM, 60 nM and 80 nM, respectively. The binding result in experiment [9] is recorded as “no binding”.

B4: SEQ ID NO:322 (peptide)
peptide: Ac-AGYGPCAEMSPWLCWYPGTGGGK-NH2
modifications: disulfide 6-14 (inferred); not fully specified; also: C-terminal Lys fluorescein-labeled in some assay forms
Take B4: the dissociation constant Kd in [7] was 3700 nM; in [8], 130 nM. Moreover, in [9], the binding result was “no binding”.

B5: SEQ ID NO:325 (peptide)
peptide: Ac-AQAPAWTFGTNWRSIQRVDSLTGGGGGK-NH2
modifications: not fully specified; also: C-terminal Lys fluorescein-labeled in some assay forms
With B5, binding in [8] was put at a Kd of 840 nM. Further, the binding result in experiment [9] and in experiment [11] was “no binding” each time.

B6: SEQ ID NO:326 (peptide)
peptide: Ac-AQEGWFRNPQEIMGFGDSWDKPGGGGGK-NH2
modifications: not fully specified; also: C-terminal Lys fluorescein-labeled in some assay forms
As to B6, the Kd in experiment [8] is 1400 nM. Further, the binding result in [9] and in experiment [11] was “no binding” throughout.

For the origin of these results see patent publication EP2014310A2 (Dyax Corporation, dated 2009).
